In patent US20230211003A1, “CONJUGATE COMPOUNDS FOR PREVENTING AND/OR TREATING HBV AND/OR HDV INFECTIONS, LIVER DISEASES ANDFOR TARGETING NTCP” (priority 2019, published 2023):
Read-outs that look alike come from different tables or passages of the source. Square brackets hold non-standard residues; d marks the D form. Ends that are not written are not given here. Peptide text beside a SMILES is read from it. * marks the point of attachment. Ursodeoxycholyl = C[C@H](CCC(=O)*)[C@H]1CC[C@H]2[C@@H]3[C@@H](O)C[C@@H]4C[C@H](O)CC[C@]4(C)[C@H]3CC[C@]12C; Myristoyl = CCCCCCCCCCCCCC(=O)*

Assays:
[1] = target: human sodium taurocholate co-transporting polypeptide (NTCP/SLC10A1) (human) (UniProt Q14973); test: cell-based or functional assay
[2] = system: HDV; test: microbe, parasite or virus in culture; assay type: cell-based, hepatitis D virus (HDV)
Source text: FIG. 3 HBV/HDV infection assay.
Tested were conjugate compounds comprising a truncated variant of Myrcludex B (amino acids 2-21) conjugated with bile acids cholic acid (CA) and ursodeoxy cholic acid (UDCA). They were compared with a control peptide not containing a bile acid moiety, namely HBVpreS/(-11)-21^myr (Genotype B) and the two bile acids CA and UDCA alone.
FIG. 4 HBV/HDV infection assay.
Tested were conjugate compounds comprising a truncated variant of Myrcludex B (amino acids 2-21) conjugated with cholic acid (CA) and a cyclic peptide (also comprising amino acids 2-21) conjugated with ursodeoxy cholic acid (UDCA). They were compared with a control peptide not containing a bile acid moiety, namely HBVpreS/2-21^myr (Genotype B).
FIG. 5 HBV/HDV infection assay of compounds conjugated with bile acid monomers and dimers.
Tested were three compounds: two conjugated with ursodeoxy cholic acid (UDCA) and one with a dimer of ursodeoxy cholic acid (UDCA)2, wherein two comprise amino acids 2-21 of Myrcludex B in a linear form and one as cyclic peptide.
FIG. 7 Infection inhibition of bile acid conjugates with linear peptide sequences Reduction of HDV infection by various bile acid conjugates, control peptides, ursodeoxycholic acid and cholic acid in Huh7-hNTCP cells. The cells were pretreated with the substances for 30 minutes and then co-incubated with the substances and HDV overnight. An in-cell ELISA was carried out five days after infection (n=3).
Reduction of HDV infection by various bile acid conjugates and control peptides in Huh7-hNTCP cells. The cells were pretreated with the substances for 30 minutes and then co-incubated with the substances and HDV overnight. An in-cell ELISA was carried out five days after infection (n=3).
Reduction of HDV infection by a bile acid dimer peptide conjugate bile acid conjugates as compared to the monomeric bile acid conjugates and the control peptides in Huh7-hNTCP cells. The cells were pretreated with the substances for 30 minutes and then coincubated with the substances and HDV overnight. An in-cell ELISA was carried out five days after infection (n=3).
Example 3 HDAg In-Cell ELISA (Huh7-hNTCP
1st Antibody Mouse or rabbit anti HDAg (FD3A7) 1:3000
2nd Antibody: Goat-anti-mouse or goat-anti-rabbit peroxidase conjugated 1:5000
Grow and infect cells in white 96-well plates.
1) Fix cells with 50 μl 4% PFA at RT for 30 min
5) Incubate with 100 μl primary antibody (1:3000) diluted in blocking buffer at RT with shaking for 1 h
9) Incubate with 100 μl 2nd Antibody 1:5000 in blocking buffer at RT with shaking for 1 h.
11) Add 50 μl luminescence substrate (mix according to manufacturer's protocol) and measure at plate reader directly after pipetting.
(Enhanced luciferase protocol, 0.1 s measurement)

[3] = target: T1, human sodium taurocholate co-transporting polypeptide (NTCP/SLC10A1) (human, UniProt Q14973 1-349); test: cell-based or functional assay
T1 sequence: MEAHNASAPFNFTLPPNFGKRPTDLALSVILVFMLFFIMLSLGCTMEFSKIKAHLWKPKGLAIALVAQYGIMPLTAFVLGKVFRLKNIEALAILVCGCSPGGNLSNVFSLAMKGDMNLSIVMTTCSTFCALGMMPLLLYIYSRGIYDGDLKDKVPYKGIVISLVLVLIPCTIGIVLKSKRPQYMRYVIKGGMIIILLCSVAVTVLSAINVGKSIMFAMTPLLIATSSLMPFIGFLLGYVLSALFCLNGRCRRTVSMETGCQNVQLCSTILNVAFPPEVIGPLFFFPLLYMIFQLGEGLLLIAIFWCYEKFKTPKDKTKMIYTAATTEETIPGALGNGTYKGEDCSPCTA

[4] = HDV infection, Huh7-hNTCP cells, in-cell ELISA, FIGS. 3, 4 and 5 (genotype B sequence), read-out: IC50
[5] = experiments of FIGS. 7 and 9, Huh7-hNTCP cells pretreated 30 minutes, co-incubated with HDV overnight, in-cell ELISA five days after infection (n=3), read-out: IC 50

## HBVpreS/2-21myr-UDCA (genotype B) (peptide)
[1]
  IC50, inhibition of HDV infection of Huh7-hNTCP cells (HDAg in-cell ELISA): 8.45 nM
  IC 50, inhibition of HDV infection of Huh7-hNTCP cells (in-cell ELISA, FIGS. 7 and 9): 9.2 nM

## HBVpreS/2-21myr-CA (genotype B) (peptide)
[1]
  IC50, inhibition of HDV infection of Huh7-hNTCP cells (HDAg in-cell ELISA): 7.27 nM
  IC 50, inhibition of HDV infection of Huh7-hNTCP cells (in-cell ELISA, FIGS. 7 and 9): 12.5 nM

## CCCCCCCCCCCCCC(=O)NCC(=O)N[C@H](C(=O)N[C@@H](CC(N)=O)C(=O)N[C@@H](CC(C)C)C(=O)N[C@@H](CO)C(=O)N[C@H](C(=O)N1CCC[C@H]1C(=O)N[C@@H](CC(N)=O)C(=O)N1CCC[C@H]1C(=O)N[C@@H](CC(C)C)C(=O)NCC(=O)N[C@@H](Cc1ccccc1)C(=O)N[C@@H](Cc1ccccc1)C(=O)N1CCC[C@H]1C(=O)N[C@@H](CC(=O)O)C(=O)N[C@@H](Cc1c[nH]cn1)C(=O)N[C@@H](CCC(N)=O)C(=O)N[C@@H](CC(C)C)C(=O)N[C@@H](CC(=O)O)C(=O)N1CCC[C@H]1C(N)=O)C(C)C)[C@@H](C)O [HBVpreS/2-21myr] (Myristoyl-GTNLSVPNPLGFFPDHQLDP-NH2; C-terminus assumed)
[2]; [4]
  IC50: 62.8 nM

## HBVpreS/2-21myr-(UDCA)2 (genotype B) (peptide)
[1]
  IC50, inhibition of HDV infection of Huh7-hNTCP cells (HDAg in-cell ELISA): 3.55 nM
  IC 50, inhibition of HDV infection of Huh7-hNTCP cells (in-cell ELISA, FIGS. 7 and 9): 12.7 nM

## C[C@H](CCC(=O)O)[C@H]1CC[C@H]2[C@@H]3[C@@H](O)C[C@@H]4C[C@H](O)CC[C@]4(C)[C@H]3CC[C@]12C [UDCA, ursodeoxycholic acid]
[2]; [4]
  IC50: 79000 nM
[2]; [5]
  IC50: 79000 nM

## C[C@H](CCC(=O)O)[C@H]1CC[C@H]2[C@@H]3[C@H](O)C[C@@H]4C[C@H](O)CC[C@]4(C)[C@H]3C[C@H](O)[C@]12C [CA, cholic acid]
[2]; Hepatitis delta virus
  IC50: 115000 nM

## HBVpreS/2-21myr (consensus) (peptide)
[1]
  IC 50, inhibition of HDV infection of Huh7-hNTCP cells (in-cell ELISA, FIGS. 7 and 9): 70.3 nM

## HBVpreS/2-21myr-LCA (genotype B) (peptide)
[1]
  IC 50, inhibition of HDV infection of Huh7-hNTCP cells (in-cell ELISA, FIGS. 7 and 9): 7.5 nM

## MyrB-UDCA (peptide)
[1]
  IC 50, inhibition of HDV infection of Huh7-hNTCP cells (in-cell ELISA, FIGS. 7 and 9): 1.5 nM

## CCCCCCCCCCCCCC(=O)NCC(=O)N[C@H](C(=O)N[C@@H](CC(N)=O)C(=O)N[C@@H](CC(C)C)C(=O)N[C@@H](CO)C(=O)N[C@H](C(=O)N1CCC[C@H]1C(=O)N[C@@H](CC(N)=O)C(=O)N1CCC[C@H]1C(=O)N[C@@H](CC(C)C)C(=O)NCC(=O)N[C@@H](Cc1ccccc1)C(=O)N[C@@H](Cc1ccccc1)C(=O)N1CCC[C@H]1C(=O)N[C@@H](CC(=O)O)C(=O)N[C@@H](Cc1c[nH]cn1)C(=O)N[C@@H](CCC(N)=O)C(=O)N[C@@H](CC(C)C)C(=O)N[C@@H](CC(=O)O)C(=O)N1CCC[C@H]1C(=O)N[C@H](Cc1ccc(O)cc1)C(=O)N[C@@H](CCCCNC(=O)CC[C@@H](C)[C@H]1CC[C@H]2[C@@H]3[C@@H](O)C[C@@H]4C[C@H](O)CC[C@]4(C)[C@H]3CC[C@]12C)C(N)=O)C(C)C)[C@@H](C)O [HBVpreS/2-21myr-UDCA] (Myristoyl-GTNLSVPNPLGFFPDHQLDP[dY]K(Ursodeoxycholyl)-NH2)
[2]; [5]
  IC50: 9.2 nM

B1: HBVpreS/2-21myr (Genotype B) (peptide)
peptide: Myristoyl-GTNLSVPNPLGFFPDHQLDP
[3]
  IC50, inhibition of HDV infection of Huh7-hNTCP cells (HDAg in-cell ELISA): 62.8 nM
